Reference: paper PMC10627149 (Nature structural & molecular biology, 2023)

Biological target: T1, TSEN2 Y369A/H377A/K416A (endonuclease triple mutant in pCDNA3.1-TSEN2-Flag) (human, UniProt Q8NCE0 1-465, Y369A | H377A | K416A)
T1 sequence: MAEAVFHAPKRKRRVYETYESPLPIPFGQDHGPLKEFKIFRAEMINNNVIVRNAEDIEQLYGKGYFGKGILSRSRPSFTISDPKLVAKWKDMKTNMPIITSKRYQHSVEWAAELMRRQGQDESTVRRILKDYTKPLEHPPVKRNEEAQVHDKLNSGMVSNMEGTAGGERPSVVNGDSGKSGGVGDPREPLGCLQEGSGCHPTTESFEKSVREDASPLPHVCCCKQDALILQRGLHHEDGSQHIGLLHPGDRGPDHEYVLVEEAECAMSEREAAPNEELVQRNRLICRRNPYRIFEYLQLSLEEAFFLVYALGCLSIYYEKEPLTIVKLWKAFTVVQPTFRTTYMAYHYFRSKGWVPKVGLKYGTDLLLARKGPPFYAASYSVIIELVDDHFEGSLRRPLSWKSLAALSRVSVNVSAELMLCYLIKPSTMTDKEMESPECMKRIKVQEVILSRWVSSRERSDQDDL
Experiment: cryo-EM structure

B1: TSEN15-Flag (pCDNA3.1-TSEN15-Flag) (natural protein, human)
chain: MEERGDSEPTPGCSGLGPGGVRGFGDGGGAPSWAPEDAWMGTHPKYLEMMELDIGDATQVYVAFLVYLDLMESKSWHEVNCVGLPELQLICLVGTEIEGEGLQTVVPTPITASLSHNRIREILKASRKLQGDPDLPMSFTLAIVESDSTIVYYKLTDGFMLPDPQNISLRR
B1: binds.
